# Read-outs that look alike come from different tables or passages of the source.
# B1: KGF: Keratinocyte growth factor, encoded in humans by the FGF7 gene, binds FGFR2b (protein, UniProt P21781 32-194, looked up)
# Fibroblast growth factor 7: CNDMTPEQMATNVNCSSPERHTRSYDYMEGGDIRVRRLFCRTQWYLRIDKRGKVKGTQEMKNNYNIMEIRTVAVGIVAIKGVESEFYLAMNKEGKLYAKKECNEDCNFKELILENHYNTYASAKWTHNGGEMFVALNQKGIPVRGKKTKKEQKTAHFLPMAIT
# Tested on: Human primary keratinocytes
# Assay: Keratinocyte growth in culture media: rhodamine B staining, confluency measured with Operetta plate reader
# Type: cell-based
molecule,measurement,setting,value
B1,"effect of added KGF on keratinocyte growth, FIG. 1",,cannot rescue the growth
same,"effect of added KGF on keratinocyte growth, FIG. 1",added to Green's media + Y27632,fails to enhance keratinocyte growth
same,"effect of added KGF on keratinocyte growth, FIG. 1",added to base media + Y27632,stimulates growth
same,"effect of adding KGF to Base medium on keratinocyte growth, FIG. 2","in the presence of ROCK inhibitor SB772077B, no MEFs",critical component in Kelch's medium
